Results as given in the supplement of paper PMC9170038.

System: MS2 coat protein
Test: apparent KD of MS2 coat protein; designed switch direction (-1 OFF switch, 1 ON switch): 1; higher = weaker reporter binding
Outline: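 Designed RNA switches sharing common flanks were transcribed on Illumina chips by stalled E. coli RNA polymerase. They were titrated with SNAP-549-labelled MS2 coat protein, from 0.7 or 1.5 nM doubling to 3 µM, in Tris-HCl pH 7.5 buffer with KCl, MgCl2, BSA, DTT, tRNA and Tween-20. Titrations ran without input, with 200 uM small-molecule ligand, or with an oligonucleotide input. The apparent KD of each design is the median over its clusters, after curve-fitting of normalised cluster fluorescence.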

[1] = input ligand: microRNA oligo, concentration not stated
[2] = Eterna round: R95, input ligand: FMN 200 uM
[3] = Eterna round: R95, input ligand: microRNA oligo, concentration not stated
[4] = Eterna round: R95, input ligand: none

Sequence: AGAUCAUGACGAGGAUAUCCGACAUGAGGAUCACCCAUGUAUGUUGGAGGACGCGUACGUCCAAUGGAGAAGGCGUCGUGGUCA [JL SSNG2 1.04] (Eterna round: R96, puzzle: Same State NG 2)
- apparent KD of MS2 coat protein (input ligand: FMN 200 uM): 13.6 nM
- apparent KD of MS2 coat protein [1]: 11.8 nM
- apparent KD of MS2 coat protein (input ligand: none): 14.9 nM

Sequence: AGAUCAUGACGAGGAUAUGGAACAUGAGGAUCACCCAUGUAUGUUCCAUAACGCGAAUAAAGAAUCCAGAAGGCGUCGUGAUCA [Mat - Same State NG 2 - JL mod - D31] (Eterna round: R96, puzzle: Same State NG 2)
- apparent KD of MS2 coat protein (input ligand: FMN 200 uM): 13.1 nM
- apparent KD of MS2 coat protein [1]: 52.5 nM
- apparent KD of MS2 coat protein (input ligand: none): 85.5 nM

Sequence: AGAUCAUGACGAGGAUAUGGUACAUGAGGAUCACCCAUGUAUGUAUCAUAACGCGAAUGACGAAUCCAGAAGGCGUCGUGGUCA [JL SSNG2 1.12] (Eterna round: R96, puzzle: Same State NG 2)
- apparent KD of MS2 coat protein (input ligand: FMN 200 uM): 9.94 nM
- apparent KD of MS2 coat protein [1]: 14.7 nM
- apparent KD of MS2 coat protein (input ligand: none): 22.7 nM

Sequence: AGAUGUUAAUCAGGAUAUGGGCACAUGAGGAUCACCCAUGUAAAGUAGAUACUAUGUGGUCAAGUCUAGAAGGGAUGGCUAACA [SameState NG2 #80] (Eterna round: R96, puzzle: Same State NG 2)
- apparent KD of MS2 coat protein (input ligand: FMN 200 uM): 433 nM
- apparent KD of MS2 coat protein [1]: 282 nM
- apparent KD of MS2 coat protein (input ligand: none): 279 nM

Sequence: AGAUGUUAAUCAGGAUAUGGGCACAUGAGGAUCACCCAUGUAAAUUCGAUACUAUGUGGAGACGUCUAGAAGGGAUGGCUAACA [SameState NG2 #84] (Eterna round: R96, puzzle: Same State NG 2)
- apparent KD of MS2 coat protein (input ligand: FMN 200 uM): 127 nM
- apparent KD of MS2 coat protein [1]: 82.2 nM
- apparent KD of MS2 coat protein (input ligand: none): 137 nM

Sequence: AGAUGUUAAUCAGGAUAUGGGCACAUGAGGAUCACCCAUGUAAUUUCGAUACUAUGUGGAGACGUCUAGAAGGGAUGGCUAACA [SameState NG2 #85] (Eterna round: R96, puzzle: Same State NG 2)
- apparent KD of MS2 coat protein (input ligand: FMN 200 uM): 162 nM
- apparent KD of MS2 coat protein [1]: 101 nM
- apparent KD of MS2 coat protein (input ligand: none): 134 nM

Sequence: AGCACGAUUCGAGGAUAUGAGUCACAUGAGGAUCACCCAUGUCUAAUGGAUGGGACGGCCCAACCUCAGAAGGCGAUACCGGCA [Eternabot solution 24] (Eterna round: R96, puzzle: Same State NG 2)
- apparent KD of MS2 coat protein (input ligand: FMN 200 uM): 392 nM
- apparent KD of MS2 coat protein [1]: 307 nM
- apparent KD of MS2 coat protein (input ligand: none): 338 nM

Sequence: AGCCGAAGCGCAGGAUAUACAUGGAUACAUGAGGAUCACCCAUGUAGCAACACGUGGUAGUGAUUGUAGAAGGGUGCUCGGCGC [Omei SS(NG)2 Cv17] (Eterna round: R96, puzzle: Same State NG 2)
- apparent KD of MS2 coat protein (input ligand: FMN 200 uM): 27.4 nM
- apparent KD of MS2 coat protein [1]: 35.5 nM
- apparent KD of MS2 coat protein (input ligand: none): 54.6 nM

Sequence: AGCCGAGACUGAGGAUAUAGAAAUCUACAUGAGGAUCACCCAUGUAGCAACACGUGGUAGUGAUUCUAGAAGGCGGCUCGGCGC [Omei SS(NG)2 Cv5] (Eterna round: R96, puzzle: Same State NG 2)
- apparent KD of MS2 coat protein (input ligand: FMN 200 uM): 13.4 nM
- apparent KD of MS2 coat protein [1]: 41.1 nM
- apparent KD of MS2 coat protein (input ligand: none): 40.6 nM

Sequence: AGCCGAGACUGAGGAUAUAGAUAUCUACAUGAGGAUCACCCAUGUAGCAACACGUGGUAGUGAUUCUAGAAGGCGGCUCGGCGC [Omei SS(NG)2 Cv6] (Eterna round: R96, puzzle: Same State NG 2)
- apparent KD of MS2 coat protein (input ligand: FMN 200 uM): 19.2 nM
- apparent KD of MS2 coat protein [1]: 66.2 nM
- apparent KD of MS2 coat protein (input ligand: none): 83.7 nM

Sequence: AGCCUGAGUCGAGGAUAUUAUGGAUCCUUUAAUACAUGAGGAUCACCCAUGUAAUUAAUUAUACAUGAGAAGGUGACUCAGGCA [SSNG2/11-B1] (Eterna round: R96, puzzle: Same State NG 2)
- apparent KD of MS2 coat protein [1]: 186 nM

Sequence: AGCCUGGAAGUCCAGGCAAAACAUGAGGAUCACCCAUGUACAUAGGAUAUCGUCUGAAAAGCAGACGAGAAGGGUGACCGAACU [Titedi] (Eterna round: R96, puzzle: Same State NG 3)
- apparent KD of MS2 coat protein (input ligand: FMN 200 uM): 687 nM
- apparent KD of MS2 coat protein [1]: 96.8 nM
- apparent KD of MS2 coat protein (input ligand: none): 192 nM

Sequence: AGCGAGAUAGGCAAGGAUAUGCUGAGGUGCACAUGAGGAUCACCCAUGUCAGUGGCGAAAGCGAAGCAGAAGGUGCAUUCUCUUU [ak fifth] (puzzle: Same State 2)
- apparent KD of MS2 coat protein [2]: 27.1 nM
- apparent KD of MS2 coat protein [3]: 190 nM
- apparent KD of MS2 coat protein [4]: 332 nM

Sequence: AGCGAGAUAGGCGAGGAUAUGCUUUUUUGCACAUGAGGAUCACCCAUGUCUUUGUUUUUUGUUUUGCAGAAGGCGCAUUCUCUUU [ak unbound state multiloop] (Eterna round: R96, puzzle: Same State 2)
- apparent KD of MS2 coat protein (input ligand: FMN 200 uM): 46.1 nM
- apparent KD of MS2 coat protein [1]: 15.8 nM
- apparent KD of MS2 coat protein (input ligand: none): 26.1 nM

Sequence: AGCGAGAUAGGCGAGGAUAUGCUUUUUUGCACAUGAGGAUCACCCAUGUCUUUGUUUUUUGUUUUGCAGAAGGCGCAUUCUCUUU [ak unbound state multiloop] (puzzle: Same State 2)
- apparent KD of MS2 coat protein [2]: 32.7 nM
- apparent KD of MS2 coat protein [3]: 14.3 nM
- apparent KD of MS2 coat protein [4]: 12.7 nM

Sequence: AGCUAAAACGAAGGAUAUACAGACAUGAGGAUCACCCAUGUAUACAUGAUUUAUUGUGAUCACAUGUAGAAGGUCGUACUAACA [SameState NG2 #20] (Eterna round: R96, puzzle: Same State NG 2)
- apparent KD of MS2 coat protein (input ligand: FMN 200 uM): 190 nM
- apparent KD of MS2 coat protein [1]: 649 nM
- apparent KD of MS2 coat protein (input ligand: none): 681 nM

Sequence: AGCUAAAACGAAGGAUAUACUGACAUGAGGAUCACCCAUGUAUACAUGAUUUAUUGUGAUCACAUGUAGAAGGUCGUACUAACA [SameState NG2 #21] (Eterna round: R96, puzzle: Same State NG 2)
- apparent KD of MS2 coat protein (input ligand: FMN 200 uM): 310 nM
- apparent KD of MS2 coat protein [1]: 269 nM
- apparent KD of MS2 coat protein (input ligand: none): 413 nM

Sequence: AGCUAGUACCGAGGAUAUACAUACAUGAGGAUCACCCAUGUAUACAUGAAUUAUUGAGACUACAUGUAGAAGGCGGUACUAGCA [JL SSNG2 1.20] (Eterna round: R96, puzzle: Same State NG 2)
- apparent KD of MS2 coat protein (input ligand: FMN 200 uM): 16.6 nM
- apparent KD of MS2 coat protein [1]: 35.7 nM
- apparent KD of MS2 coat protein (input ligand: none): 64.9 nM

Sequence: AGCUAGUACCGAGGAUAUACGUACAUGAGGAUCACCCAUGUAUACAUGAAUUAAUGAGACUACAUGUAGAAGGCGGUACUAGCA [Mat - Same State NG 2 - JL mod - D49] (Eterna round: R96, puzzle: Same State NG 2)
- apparent KD of MS2 coat protein [1]: 34.3 nM

Sequence: AGCUAUCGAAAACGAUAGCAAAAGCAUGUACAUGAGGAUCACCCAUGUUAUGUACAAGCUUUUUGCUCGUCUUAAAA [Zipper 23 - 11] (puzzle: Sensor for hsa-mir-208a)
- apparent KD of MS2 coat protein [2]: 326 nM
- apparent KD of MS2 coat protein [3]: 12 nM
- apparent KD of MS2 coat protein [4]: 308 nM

Sequence: AGCUAUCGAAAACGAUAGCAGAAGCAUGUACAUGAGGAUCACCCAUGUCAUGUACAAGCUUUUUGCUCGUCUUAAAA [Zipper 23 - 1] (puzzle: Sensor for hsa-mir-208a)
- apparent KD of MS2 coat protein [2]: 360 nM
- apparent KD of MS2 coat protein [3]: 17.8 nM
- apparent KD of MS2 coat protein [4]: 703 nM

Sequence: AGCUAUCGAAAACGAUAGCAUAAGCUUGGACAUGAGGAUCACCCAUGUCAUGUACAAGCUUUUUGCUCGUCUUAAAA [JL zipper 29] (Eterna round: R96, puzzle: Sensor for hsa-mir-208a)
- apparent KD of MS2 coat protein (input ligand: FMN 200 uM): 32.3 nM
- apparent KD of MS2 coat protein [1]: 11.9 nM
- apparent KD of MS2 coat protein (input ligand: none): 34.5 nM

Sequence: AGCUAUUAAUCAGGAUAUAGGGACAUGAGGAUCACCCAUGUAUAAAUGAUGAAAUGUGGUCACCUCUAGAAGGGAUUACUAACA [SameState NG2 #43] (Eterna round: R96, puzzle: Same State NG 2)
- apparent KD of MS2 coat protein (input ligand: FMN 200 uM): 42.7 nM
- apparent KD of MS2 coat protein [1]: 29 nM
- apparent KD of MS2 coat protein (input ligand: none): 40.4 nM

Sequence: AGCUAUUAAUCAGGAUAUGGUGACAUGAGGAUCACCCAUGUAUAGAUGAUUAAAUGUGGUCUAUACCAGAAGGGAUUACUAACA [SameState NG2 #52] (Eterna round: R96, puzzle: Same State NG 2)
- apparent KD of MS2 coat protein (input ligand: FMN 200 uM): 55.5 nM
- apparent KD of MS2 coat protein [1]: 247 nM
- apparent KD of MS2 coat protein (input ligand: none): 356 nM

Sequence: AGCUAUUACGAAGGAUAUUGUGACAUGAGGAUCACCCAUGUCUUCAUGAUUUAUUGUGAUCACGUCGAGAAGGUUGUACUAACA [SameState NG2 #28] (Eterna round: R96, puzzle: Same State NG 2)
- apparent KD of MS2 coat protein (input ligand: FMN 200 uM): 50.5 nM
- apparent KD of MS2 coat protein [1]: 56.3 nM
- apparent KD of MS2 coat protein (input ligand: none): 57.6 nM

Sequence: AGCUAUUACGAAGGAUAUUGUGACAUGAGGAUCACCCAUGUUUGCAUGAUUAAUUGUGAUCACGUCGAGAAGGUUGUACUAACA [SameState NG2 #31] (Eterna round: R96, puzzle: Same State NG 2)
- apparent KD of MS2 coat protein (input ligand: FMN 200 uM): 26.2 nM
- apparent KD of MS2 coat protein [1]: 20.9 nM
- apparent KD of MS2 coat protein (input ligand: none): 29.5 nM

Sequence: AGCUAUUACGAAGGAUAUUGUGACAUGAGGAUCACCCAUGUUUUCAUGAUUAAUUGUGAUCACGUCGAGAAGGUUGUACUAACA [SameState NG2 #30] (Eterna round: R96, puzzle: Same State NG 2)
- apparent KD of MS2 coat protein [1]: 43 nM
